Reference: patent US20210277053A1
Where two headings read alike, the source gives them in different places.

Key:
Experiment in all cases: ELISA on immobilised human gamma globulin, anti-6-His detection; antibody-binding activity after 0.5 M NaOH, 25 C, 15 h divided by activity without alkali treatment
[1] = target: gamma globulin (manufactured by The Chemo-Sero-Therapeutic Research Institute), a human antibody (human)
[2] = target: gamma globulin (manufactured by The Chemo-Sero-Therapeutic Research Institute), a human antibody (human); remark: listed apart in the source
[3] = target: gamma globulin (manufactured by The Chemo-Sero-Therapeutic Research Institute), a human antibody (human); remark: listed apart in the source
[4] = target: gamma globulin (manufactured by The Chemo-Sero-Therapeutic Research Institute), a human antibody (human); remark: listed apart in the source

Substance | Remaining activity [%] [1] | Remaining activity [%] [2] | Remaining activity [%] [3] | Remaining activity [%] [4]
SpA5d (SpA4a with Asn11Lys) (designed binder) | 88% | 86% | 89% | –
SpA5e (SpA4a with Asn11Tyr) (designed binder) | – | – | 85% | –
SpA5f (SpA5d with Lys(Glu)58Gly) (designed binder) | 90% | – | – | –
SpA6a (SpA5d with Glu15Ala) (designed binder) | 91% | – | 86% | 83%
SpA6b (SpA6a with Lys(Glu)58Asp) (designed binder) | – | – | 87% | –
SpA6c (SpA6a with Lys(Glu)58Val) (designed binder) | – | – | 87% | –
SpA7a (SpA6a with Val40Ala) (designed binder) | – | – | 89% | –
SpA7b (SpA6a with Asn3Ile) (designed binder) | – | – | – | 88%
